This data set in a line: yeast display, Sf9 membrane polyspecificity reagent, FACS + sequencing; frameworks hold sequencing errors. In outline: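 A nanobody's polyreactivity label depends on the gate it was sorted from. Yeast display cells were stained with 10% biotinylated, detergent-solubilized Sf9 membrane reagent for 1 hour at 4 °C, enriched on streptavidin microbeads and sorted by FACS. The low and high (top ~1%) gates were set on anti-HA fluorescence for expression and streptavidin fluorescence for reagent binding.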
On to “QVQLVESGGGLVQAGGSLRLSCAASGSIFAYNVMGWYRQAPGKEREFVAAISSGGRTTYADSVKGPFTISRDNAKNTVYLQMNSLKAEDTAVYYFNAYFLVHYRRLRPYEYWGQGTQVTVSS”, for which the “polyreactivity (PSR sort gate)” value was “low polyreactivity”.

In the case of “QVQLVESGGGLVQAGGSLRLSCAASGSIFAYYAMGRNRQAPGKERELVAAITFSGVSTYYADSVKGRFTISRDNAKNTVYLQMNILKPEDTAVYYCAADPYQNYWWWYDYWGQGTQVTVSS”, the “polyreactivity (PSR sort gate)” value is listed as “low polyreactivity”.

Consider “QVQLVESGGGLVQAGGSLRLSCAASGSIFAYYAMGWYRQAPGKERELVAAISRRAGTTYYADSVKGRFTISRDNAKNTVYLQMNSLKPEDTAVYYCAKVSSVWYPRVDYWGQGTQVTVSS”, for which the “polyreactivity (PSR sort gate)” value is given as “low polyreactivity”.

In the case of “QVQLVESGGGLVQAGGSLRLSCAASGSIFAYYAMGWYRQAPGKERELVAAISRSGVSTYYADSVKGRFTISRDNAKNTVYLQMNSLKPEDTAVYYCAARWRSGFTSGDYWGQGTQVTVSS”, the “polyreactivity (PSR sort gate)” value is on record as “low polyreactivity”.

In the case of “QVQLVESGGGLVQAGGSLRLSCAASGSIFAYYAMGWYRQPPGKERELVAAISYSVDGTYYADSVKGRFTISRDNAYNTVYLQMNSLKPEDTAVYYCATQIYPLDFYQGDWNDYWGQGTQVTVSS”, the “polyreactivity (PSR sort gate)” value is given as “low polyreactivity”.

Consider “QVQLVESGGGLVQAGGSLRLSCAASGSIFAYYTMGWSRQAPGKERELVAAITSGGSTNYADSVKGRFTISRDNAKNTVYLQMNSLKPEDTAVYYCAVQGSRYSYRYGYRFRTMDYWGQGTQVTVSS”, for which the “polyreactivity (PSR sort gate)” value is listed as “high polyreactivity”.

On to “QVQLVESGGGLVQAGGSLRLSCAASGSIFAYYTMGWSRQAPGKERELVATISSRGGSTNYADSVKGRFTISRDNAKNTVYLQMNSLKPEDTAVYYCNTAGAADRRRAYDHDYWGQGTQVTVSS”, for which the “polyreactivity (PSR sort gate)” value is “high polyreactivity”.

“QVQLVESGGGLVQAGGSLRLSCAASGSIFDDYAMGWSRQAPGKERELVAASSGGVSTNYADSVKGRFTISRDNAKNTVYLQMNSLKPEDTAVYYCNADYAGAYIHDYWGKGTQVTVSS”: the “polyreactivity (PSR sort gate)” value is recorded as “low polyreactivity”.

Consider “QVQLVESGGGLVQAGGSLRLSCAASGSIFDDYAMGWYRQAPGKERELVAAISWSGGRTYYADSVKGRFTISRDNAKTTVYLQMNSLKPEDTAVYDCAATTGVRSRRYYYWGQGTQVTVSS”, for which the “polyreactivity (PSR sort gate)” value is reported as “low polyreactivity”.

In the case of “QVQLVESGGGLVQAGGSLRLSCAASGSIFDDYAMGWYRQAPGKERELVAAITTGGGRTYYADSVKGRFTISRDNAKNTVYLQMNSLKPEDTAVYYCNAKAVRGYGTWRDGSISYGMDYWGQGTQVTVSS”, the “polyreactivity (PSR sort gate)” value is given as “high polyreactivity”.

For the sequence “QVQLVESGGGLVQAGGSLRLSCAASGSIFDDYAMGWYRQAPGKERELVAAMSWSGGRTYYADSVKGRFTISRDYAKNTVYLQMNSLNPEDTAVYYCAATTGVRSRRYYYWGQGTLVTVSS”, the “polyreactivity (PSR sort gate)” value is “low polyreactivity”.

Take “QVQLVESGGGLVQAGGSLRLSCAASGSIFDDYAMGWYRQAPGNERELVAAITSGGSTYYADSVKGRFTISRDNAKNTVYLQMNSLKPEDTAVYYWAAPENKSDEYDYWGQGTQVTVSS”: the “polyreactivity (PSR sort gate)” value is reported as “low polyreactivity”.

As to “QVQLVESGGGLVQAGGSLRLSCAASGSIFDENAMGWYRQAPGKERELVAAITGSGVRTYYADSVKGRFTISRDNAKNTVYLQMNSLKPEDTAVYYCNRVKSGSYKFGYWGQGTQVTVSS”, the “polyreactivity (PSR sort gate)” value was “high polyreactivity”.

“QVQLVESGGGLVQAGGSLRLSCAASGSIFDFYAMGWYRQAPGKERELVAAISWSGGNTYYADSVKGRFTISRDNAKNTVYLQMNSLKPEDTAVYYCNRGSIWRLLTGDFDYWGQGTQVTVSS”: the “polyreactivity (PSR sort gate)” value is recorded as “low polyreactivity”.

For “QVQLVESGGGLVQAGGSLRLSCAASGSIFDGNAMGWYRKATGKERELVAAITNSGGSTYYADSVNGRFTISPENAMNSVYLQKNSLKPEDTAVYYCNALPFAWRRYRWLRTMYYWGQGTQVTVSS”, the “polyreactivity (PSR sort gate)” value was “low polyreactivity”.

Consider “QVQLVESGGGLVQAGGSLRLSCAASGSIFDGNGMGWSRQAPGKERELVASISGDGSTNYADSVKGRFTISRDNAKNTVYLQMNSLKPEDTAVYYCATDDPLSQINEQGMDYWGQGTQVTVSS”, for which the “polyreactivity (PSR sort gate)” value is recorded as “low polyreactivity”.

With “QVQLVESGGGLVQAGGSLRLSCAASGSIFDGYGMGWSRQAPGKERELVAGITSGGSTYYADSVKGRFTISRDNAKNTVYLQMNSLKPEDTAVYYCATVVRYSNARGDYWGQGTQVTVSS”, the “polyreactivity (PSR sort gate)” value is listed as “low polyreactivity”.

Regarding “QVQLVESGGGLVQAGGSLRLSCAASGSIFDIYAMGWYRQAPGKERELVAAISLSAGSTYYADSVKGRFTISRDNAKNTVYLQMNSLKPEDTAVYYCAKDFFEHSPVSHTYSSSKYDYWGQGTQVTVSS”, the “polyreactivity (PSR sort gate)” value was “low polyreactivity”.

For “QVQLVESGGGLVQAGGSLRLSCAASGSIFDIYGMGWYRQAPGKERELVASISGGAGSTNYADSVKGRFTISRDTAKNTVYLQMNWLKPEDTAVYYCAAEVYVPDYFQHKFDVEYEYWGQGTQVTVSS”, the “polyreactivity (PSR sort gate)” value is “low polyreactivity”.

As to “QVQLVESGGGLVQAGGSLRLSCAASGSIFDLYAMGWYRQAPGKERELVAGISYSGGSTYYADSVKGRFTISRDNAKNTVYLQMNSLKPEDTAVYHCADDGGWRYHPFSSLFDYWGQGTQVTVSS”, the “polyreactivity (PSR sort gate)” value was “low polyreactivity”.

In the case of “QVQLVESGGGLVQAGGSLRLSCAASGSIFDNAMGWYRQAPGKERELVASIDQSGGSTYYADSVMGRFTISRDNAKNTVYLQMNSLKPEDTAVYYCAADSFTGYPYEMDYWGQGTQVTVSS”, the “polyreactivity (PSR sort gate)” value is on record as “low polyreactivity”.

Consider “QVQLVESGGGLVQAGGSLRLSCAASGSIFDNNAMGWYRQSPGKEREFVAAISWIGGSTSYADSVKGRFTISSDNAKNTVYLQMNSLKPEDTAVYYCNSLRYYPYGLPIYDYWGQGTQVTVSS”, for which the “polyreactivity (PSR sort gate)” value was “low polyreactivity”.

With “QVQLVESGGGLVQAGGSLRLSCAASGSIFDNYALGWYRQAPGKERELVAAISWNGGDTTYADSVKGRFTISRDNAKNTVYLQMNSLKPEDTAVYYCAADLGYWVADFYWGQGTQVTVSS”, the “polyreactivity (PSR sort gate)” value is given as “high polyreactivity”.

Regarding “QVQLVESGGGLVQAGGSLRLSCAASGSIFDPYAKGWYRQAPGKEREFVAAITGSGGSTSYADSVKGRFTISRDNAKNTVYLQMNSLKPEDTAVYYCAARRTVEWGQGTQVTVSS”, the “polyreactivity (PSR sort gate)” value was “high polyreactivity”.

For the sequence “QVQLVESGGGLVQAGGSLRLSCAASGSIFDPYAMGWYRQAPGKERELVAAITASGSSTYYADSVKGRFTISRDNAKNTVYLQMYSLKPEDTAVYYCAADRANWEYLLSWLGYDYWGQGTQVTVSS”, the “polyreactivity (PSR sort gate)” value is on record as “low polyreactivity”.

Turning to “QVQLVESGGGLVQAGGSLRLSCAASGSIFDPYTMGWYRQAPGKERELVAAINWSGGSTYYADSVKGRCTISRDNAKNTVYLQINSLKPEDTAVSHCNADPHGYYGYGYDYWGQGTQVNVSS”, the “polyreactivity (PSR sort gate)” value is reported as “low polyreactivity”.

Turning to “QVQLVESGGGLVQAGGSLRLSCAASGSIFDQYTMGWYRQAPGKARELVAAIRFSGGSTSYADSVKGRFTISRDNAKNTVYLQMISLKPEDTAVYYCNVDAITGGDWEDFDYWGQGTQVTVSS”, the “polyreactivity (PSR sort gate)” value is “low polyreactivity”.

Consider “QVQLVESGGGLVQAGGSLRLSCAASGSIFDRNAMGWYRQAPGKERELVAAISRSSGNTYYADSVKGRFTISRDNAKNTVYLQMNSLKPEDTAVYYCAAKPTYPKRYNYWGQGTQVTVSS”, for which the “polyreactivity (PSR sort gate)” value is “high polyreactivity”.

Take “QVQLVESGGGLVQAGGSLRLSCAASGSIFDRNAMGWYRQAPGKERELVSAINSNGGITYYADSVKGRFTISRDNAKNTVYLQMNSLKPEDTAVYYCAAVIRVVYREDHCGQGTQVTVSS”: the “polyreactivity (PSR sort gate)” value is “low polyreactivity”.

In the case of “QVQLVESGGGLVQAGGSLRLSCAASGSIFDRYAMGWYRQAPGKERELVAAISTGGSTNYADSVKGRFTISRDNAKNSVYLQMNSLKPEDTAVYYCAARYLYRMYYWGQGTQVTVSS”, the “polyreactivity (PSR sort gate)” value is on record as “low polyreactivity”.
